The values below come from publication PMC4813732.

Test [1] addresses Human thrombin (human).
For test [2], the target named is Human thrombin (human). The source holds these as a separate data set.

On to “α-form of recombinant human antithrombin bearing high-mannose-type N-linked oligosaccharides (from UniProt P01008 33-464) (natural protein)”, for which the heparin cofactor activity (residual thrombin activity at the end of thrombin inactivation in the presence of heparin; phAT as standard) in the test with Human thrombin (human) [1] came out at 5.83 IU/mg. Further, in the test with Human thrombin (human) [2], the second-order rate constant of thrombin inhibition, with heparin (residual thrombin activity on S-2238, 25°C, pH 7.4) was 1.9e+07 /M/s and the second-order rate constant of thrombin inhibition, without heparin (residual thrombin activity on S-2238, 25°C, pH 7.4) was 6600 /M/s.
Consider “β-form of recombinant human antithrombin bearing sialylated biantennary complex-type N-linked oligosaccharides lacking a core fucose (from UniProt P01008 33-464) (natural protein)”, for which, in the test with Human thrombin (human) [1], the heparin cofactor activity (residual thrombin activity at the end of thrombin inactivation in the presence of heparin; phAT as standard) stood at 5.66 IU/mg. For the same substance, in the test with Human thrombin (human) [2], the second-order rate constant of thrombin inhibition, with heparin (residual thrombin activity on S-2238, 25°C, pH 7.4) was 2e+07 /M/s and the second-order rate constant of thrombin inhibition, without heparin (residual thrombin activity on S-2238, 25°C, pH 7.4) is 7300 /M/s.
Take “β-form of recombinant human antithrombin bearing high-mannose-type N-linked oligosaccharides (from UniProt P01008 33-464) (natural protein)”: the heparin cofactor activity (residual thrombin activity at the end of thrombin inactivation in the presence of heparin; phAT as standard) with Human thrombin (human) [1] stood at 5.8 IU/mg. In the test with Human thrombin (human) [2], the second-order rate constant of thrombin inhibition, with heparin (residual thrombin activity on S-2238, 25°C, pH 7.4) was 1.9e+07 /M/s and the second-order rate constant of thrombin inhibition, without heparin (residual thrombin activity on S-2238, 25°C, pH 7.4) is 6100 /M/s.
“α-form of recombinant human antithrombin bearing sialylated biantennary complex-type N-linked oligosaccharides lacking a core fucose (from UniProt P01008 33-464) (natural protein)”: the heparin cofactor activity (residual thrombin activity at the end of thrombin inactivation in the presence of heparin; phAT as standard) with Human thrombin (human) [1] came to 5.49 IU/mg. Also, the second-order rate constant of thrombin inhibition, with heparin (residual thrombin activity on S-2238, 25°C, pH 7.4) with Human thrombin (human) [2] is 1.9e+07 /M/s.
As to “latent form of recombinant human antithrombin (from UniProt P01008 33-464) (natural protein)”, the heparin cofactor activity (residual thrombin activity at the end of thrombin inactivation in the presence of heparin; phAT as standard) in the test with Human thrombin (human) [1] amounted to 0.35 IU/mg.
